In the DeepSol protein solubility set:

Assay: soluble on expression in E. coli; label from the status in PepcDB or PDB records

Row | Sequence | soluble on expression in E. coli
1 | MAHHHHHHSLDSLGAINKIQDFLQKQEYKTLEYNLTTTEVVMENVTAFWEEGFGELFEKAKQNNNNRKTSNGDDSLFFSNFSLLGTPVLKDINFKIERGQLLAVAGSTGAGKTSLLMMIMGELEPSEGKIKHSGRISFCSQFSWIMPGTIKENIIFGVSYDEYRYRSVIKACQLEEDISKFAEKDNIVLGEGGITLSGGQRARISLARAVYKDADLYLLDSPFGYLDVLTEKEIFESCVCKLMANKTRILVTSKMEHLKKADKILILHEGSSYFYGTFSELQNLQPDFSSKLMGCDSFDQFSAERRNSILTETLHRLSLEGDAPVSWTETKKQSFKQTGEFGEKRKNSILNPINSIRKEG | soluble
2 | MAHHHHHHSLEIRAFSKYRKRALSLVRGKVLEIGVGTGKNLPYYPKDVEVIGIDFSRNMLKKAEERRRKLRLENVTLLYMDAQDLEFEDNTFDTIVSTFVFCTVPDPIKGLKEAYRVLKPGGRAIFLEHMKSESKLLNVPLYLMEPFIRTLLGTSLLRETQRNIERAGFKIEKVENLFYDIVRLIIATKDEG | soluble
3 | MAHHHHHHSLIKTEFKGNNIPYEYAAGADVSDSINGNPIKSFPFEVIELPEGTKYLAWSLIDYDAIPVCGFAWIHWSVANVSVSGNSISIKADLSRTKGDYVQGKNSFTSGLLAEDFSEIENHYVGPTPPDQDHQYELTVYALDHSLNLKNGFYLNEFLKEVNQHKIDQTSINLIGRKEG | not soluble
4 | MAHHHHHHSLKNTLGRQFSRATETYEKWAVPQRKSAKILVEFVKPSGLVLDLGCGTGFISEFVNDCEVVGLDISEGMAKAYREKFRKVVIGNAENLPFKDRSFDFVLSNFSLHWSDWRKSIREALRVCKNFVGVAIPVYGSVSFSEFPFPKAEEILEEFKPQEFKIINLEIPFRGMELIKFFHYTGTANFTGKKNFKTKRELIKLSKDLEKEYFKVLFLKLKSRAFEG | soluble
5 | MAHHHHHHVDDDDKMFSTQVNSSLTSPTGRGSMAAPSLHPSLGPGIGSPGQLHSPISTLSSPINGMGPPFSVISSPMGPHSMSVPTTPTLGFSTGSPQLSSPMNPVSSSEDIKPPLGLNGVLKVPAHPSGNMASFTKHICAICGDRSSGKHYGVYSCEGCKGFFKRTVRKDLTYTCRDNKDCLIDKRQRNRCQYCRYQKCLAMGMKREAVQEERQRGKDRNENEVESTSSANEDMPVERILEAELAVEPKTETYVEANMGLNPSSPNDPVTNICQAADKQLFTLVEWAKRIPHFSELPLDDQVILLRAGWNELLIASFSHRSIAVKDGILLATGLHVHRNSAHSAGVGAIFDRVLTELVSKMRDMQMDKTELGCLRAIVLFNPDSKGLSNPAEVEALREKVYASLEAYCKHKYPEQPGRFAKLLLRLPALRSIGLKCLEHLFFFKLIGDTPIDTFLMEMLEAPHQMT | soluble
6 | MAHPLDLNQLAQHIKQWGQSLGFQQVGICDTDLTAEEPRLQAWLDKQYHGEMAWMARHGMLRARPHELLPGTLRVISVRMNYLPAKAAFASTLNNPELGYVSRYALGRDYHKLLRQRLKKLGDQIQHYCLEQNNLDRHDLELHDLEQHDSERQGQPEQHTASEINFRPFVDSAPIMERSLAAKAGIGWVGKHSLILNRDAGSWFFLGELLIDLPLPVDKPQEEQCGRCVACMTTCPTGAIVAPYTVDARRCISYLTIELEGAIPEEFRPLMGNRIYGCDDCQLICPWNRFSQLTDEDDFSPRAVLHTPQLLDLFAWNEEKFLRVTEGSAIRRIGHLRWLRNISVALGNAPYLDSIVLALETRRGLHPMLDEHIEWAISQQLARRATQAVEVQLPQKKRLIRAIEKGLPRDA | not soluble
7 | MAHQLLIGKGMITLNLKRIFLALTLLPLFAVAADDCALSDPTLTVQAYTVNPQTERVKMYWQKANGEAWGTLHALLADINSQGQVQMAMNGGIYDESYAPLGLYIENGQQKVALNLASGEGNFFIRPGGVFYVAGDKVGIVRLDAFKTSKEIQFAVQSGPMLMENGVINPRIHPNVASSKIRNGVGINKHGNAVFLLSQQATNFYDFACYAKAKLNVEQLLYLDGTISHMYMKGGAIPWQRYPFVTMISVERKGLEHHHHHH | not soluble
8 | MAHRPRWTLSQVTELFEKPLLDLLFEAQQVHRQHFDPRQVQVSTLLSIKTGACPEDCKYCPQSSRYKTGLEAERLMEVEQVLESARKAKAAGSTRFCMGAAWKNPHERDMPYLEQMVQGVKAMGLEACMTLGTLSESQAQRLANAGLDYYNHNLDTSPEFYGNIITTRTYQERLDTLEKVRDAGIKVCSGGIVGLGETVKDRAGLLLQLANLPTPPESVPINMLVKVKGTPLADNDDVDAFDFIRTIAVARIMMPTSYVRLSAGREQMNEQTQAMCFMAGANSIFYGCKLLTTPNPEEDKDLQLFRKLGLNPQQTAVLAGDNEQQQRLEQALMTPDTDEYYNAAALLEHHHHHH | not soluble
